Reference: the supplement of paper PMC10724198
± gives the standard deviation of the averaged measurements.

Each sequence was assayed on Saccharomyces cerevisiae (assay: protein stability index of tFT-peptide fusion (C-terminal peptide) (PSI (0-1 scale)); higher = more stable (slower turnover)). Details: genetic background: wild type; temperature: 30 C.
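Note: PSI is a weighted mean of sequencing reads over stability bins, variants kept only with over 10 reads, mCherry proximal and sfGFP distal, peptide attached via GGGS linker.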

Row | Sequence | protein stability index
1 | TGWSRTTVGFAT | 0.711 ± 0.046
2 | PGCSFSYYFFAV | 0.5725 ± 0.0016
3 | GCFARSEKLSGL | 0.687 ± 0.1
4 | RIPLYAFLPPID | 0.745 ± 0.066
5 | FRSENSWLLCSW | 0.786 ± 0.048
6 | VASLSGGQISFG | 0.612 ± 0.029
7 | APPPPPPPPPPP | 0.63 ± 0.056
8 | MYPFKYGFASWV | 0.583 ± 0.016
9 | GCVGIGFSPGGG | 0.656 ± 0.014
10 | RLRSSTAAAAIV | 0.713 ± 0.082
11 | TRGGTVKDRQQR | 0.702 ± 0.037
12 | FGVGGAVGWRLR | 0.677 ± 0.052
13 | VRGGGSREERGC | 0.639 ± 0.061
14 | GLVVGGLRPKRV | 0.68 ± 0.004
15 | FLSFTSLRTKGL | 0.743 ± 0.054
16 | AVGRGGVGAEGA | 0.65 ± 0.011
17 | RTTAGINAFPGV | 0.6184 ± 0.0051
18 | WGRRGGVARGRA | 0.787 ± 0.1
19 | KLDDEVLFKRNI | 0.692 ± 0.057
20 | ARPFPPLSPPPP | 0.655 ± 0.078
21 | CTKKNGYNGKNT | 0.652 ± 0.025
22 | TARAGRTASAPR | 0.7084 ± 0.0025
23 | AGCSVVGRWCLW | 0.742 ± 0.1
24 | GGTVAGLYILGF | 0.6301 ± 0.001
25 | PPPWSFPCPSAS | 0.778 ± 0.084
26 | RPLSSPPTRSRA | 0.751 ± 0.038

Row | Sequence | protein stability index
27 | RNWCHGTVLNRL | 0.736 ± 0.13
28 | FPPRLPPSPPLP | 0.666 ± 0.036
29 | GAVYHGGMASVR | 0.746 ± 0.054
30 | LSCTTSSRPSPP | 0.699 ± 0.063
31 | PVPIPCPIPPPT | 0.703 ± 0.0062
32 | RVKMEFGRYRIF | 0.52266 ± 0.0005
33 | PFPSPPAPPPLP | 0.672 ± 0.048
34 | YAGPCRRHSGGC | 0.679 ± 0.082
35 | ARKGVDFSRVIG | 0.6472 ± 0.0059
36 | VGLGGTGGESRY | 0.706 ± 0.027
37 | RTTSFVLSYRRE | 0.66 ± 0.019
38 | PFPRPAFPPYFP | 0.746 ± 0.047
39 | SLASPPPLHCTL | 0.659 ± 0.034
40 | PPPPPNPIPPTF | 0.713 ± 0.028
41 | LGVGFFLGFRTG | 0.6508 ± 0.0048
42 | TKKRKRKKKGNK | 0.715 ± 0.05
43 | LCWGGRCGSGPG | 0.72 ± 0.051
44 | NQHKKGQKKKGI | 0.684 ± 0.042
45 | VAGGGGGCLVDC | 0.646 ± 0.022
46 | WLSAGAWGAVIL | 0.788 ± 0.034
47 | IVRTKLHPIGTS | 0.655 ± 0.043
48 | LPTVVTAVHQGL | 0.671 ± 0.014
49 | AAPSPRPTPLPS | 0.698 ± 0.025
50 | LLPSLSPPPTPP | 0.655 ± 0.051
51 | GGGLLMVAASRC | 0.634 ± 0.014
52 | SPAPPLSRPPPH | 0.695 ± 0.0081

Row | Sequence | protein stability index
53 | VVEKKKKKKNNK | 0.73 ± 0.041
54 | LGHITLSERFGS | 0.705 ± 0.21
55 | CDFYGCAPAPRL | 0.7945 ± 0.0077
56 | GGGRAAIVRGGW | 0.682 ± 0.014
57 | EMEHANDARRVS | 0.67 ± 0.015
58 | APPPPVAEAARG | 0.667 ± 0.032
59 | HFSLCSNRSNPP | 0.646 ± 0.015
60 | PRLQLHSDPNCS | 0.733 ± 0.087
61 | AAEKSPQQADAD | 0.709 ± 0.013
62 | LPNLTIPSRAIA | 0.623 ± 0.0054
63 | GWCVGHSVLVVE | 0.618 ± 0.021
64 | KNKRKTNLRKKT | 0.6961 ± 0.00039
65 | GGLVGSSVWGWG | 0.703 ± 0.04
66 | TYRPEMYSRVLT | 0.738 ± 0.011
67 | TGLMAPEGGGQA | 0.719 ± 0.076
68 | SFHCFFTTSWYS | 0.701 ± 0.11
69 | VLCVDQVEVSFV | 0.678 ± 0.03
70 | GGWHVVGGEGVG | 0.524 ± 0.0082
71 | SHSLPHLSGPPR | 0.698 ± 0.056
72 | AAMQCSRASTSS | 0.634 ± 0.077
73 | GPPSVSPPFSPS | 0.7829 ± 0.0016
74 | GEGTQGVSIGPR | 0.711 ± 0.015
75 | DGGVGRALEHGE | 0.652 ± 0.0083
76 | GSGDFWRLCISL | 0.785 ± 0.1
77 | TSPGCPFAFITL | 0.714 ± 0.052
78 | RGWGVLCGGGWG | 0.556 ± 0.053

Row | Sequence | protein stability index
79 | VGFLGFFVVEGV | 0.545 ± 0.033
80 | PPPPPTPPPARP | 0.695 ± 0.054
81 | PPPPPPPLPHPP | 0.595 ± 0.058
82 | RLPPRPPPRPPT | 0.6514 ± 0.006
83 | VCYGELTISNLE | 0.654 ± 0.045
84 | CKEGLGSGRWGR | 0.717 ± 0.018
85 | GRSASDTRGLGL | 0.672 ± 0.13
86 | PEESSSEGSVKR | 0.67927 ± 0.00039
87 | SRYVSGGRKRKV | 0.636 ± 0.045
88 | RHIKIADYKTLT | 0.686 ± 0.04
89 | FRSPRLSPSFFF | 0.717 ± 0.027
90 | LLFPCSVGLGVV | 0.686 ± 0.077
91 | SPSPFRPAPSLH | 0.7048 ± 0.0061
92 | RLPAPPPHPPPP | 0.7037 ± 0.0013
93 | CQPNRKRETRGN | 0.732 ± 0.064
94 | LLVPCLQPPFRV | 0.622 ± 0.023
95 | PALPPPPSPPLL | 0.754 ± 0.052
96 | MGHLFIPSQSQS | 0.715 ± 0.048
97 | MIASGGGGEAAY | 0.742 ± 0.081
98 | KKKQKKKKHEQK | 0.7 ± 0.034
99 | FSSCPPFRPFPL | 0.787 ± 0.04
100 | SPYLGTYAPVIK | 0.6804 ± 0.0032
101 | VSYFARCLGSLA | 0.629 ± 0.0011
